T1: human tankyrase 2 ankyrin repeat cluster 4 (TNKS2 ARC4, residues 488-649) (human, UniProt Q9H2K2 488-649)
T1 sequence (looked up): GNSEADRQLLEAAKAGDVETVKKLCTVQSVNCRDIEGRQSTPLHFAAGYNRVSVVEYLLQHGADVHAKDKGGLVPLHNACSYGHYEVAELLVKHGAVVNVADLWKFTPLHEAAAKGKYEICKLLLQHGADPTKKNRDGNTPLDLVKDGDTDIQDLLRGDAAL

T2: human tankyrase 1 ankyrin repeat clusters 2-3 (TNKS1 ARC2-3, residues 315-662) (human, UniProt O95271 315-662)
T2 sequence (looked up): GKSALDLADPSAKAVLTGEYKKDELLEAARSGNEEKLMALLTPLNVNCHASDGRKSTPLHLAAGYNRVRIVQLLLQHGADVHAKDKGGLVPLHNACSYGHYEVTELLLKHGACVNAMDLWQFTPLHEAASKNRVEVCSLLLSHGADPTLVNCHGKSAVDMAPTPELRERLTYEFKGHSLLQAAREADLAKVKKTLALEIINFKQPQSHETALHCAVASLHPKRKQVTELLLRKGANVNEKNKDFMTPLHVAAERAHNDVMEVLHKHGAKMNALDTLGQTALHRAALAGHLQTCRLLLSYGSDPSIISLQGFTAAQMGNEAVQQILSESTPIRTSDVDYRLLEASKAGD

Bridge positions count the residues as written; N and C are the ends. Square brackets hold non-standard residues; d marks the D form. Ends that are not written are not given here. * marks the point of attachment. 5‑TAMRA = CN(C)c1ccc2c(-c3ccc(C(=O)*)cc3C(=O)[O-])c3ccc(N(C)C)cc3[o+]c2c1; n3 = azido unnatural amino acid, 3 CH2 in side chain; Lys(N3) = [N-]=[N+]=NCCCC[C@H](N)C(=O)O; Dap(N3) = [N-]=[N+]=NC[C@H](N)C(=O)O; Aha = [N-]=[N+]=NCC[C@H](N)C(=O)O; m3c = not defined here; m3 = not defined here; m4 = not defined here; m5 = not defined here; Ahx = NCCCCCC(=O)O

Data on 29 molecules can be found in article PMC5358875 (Journal of the American Chemical Society, 2017).

The target in the first assay is T1, human tankyrase 2 ankyrin repeat …. Description: fluorescence polarisation; competition: unlabeled peptide or Axin1 fragment diluted 2-fold serially against TAMRA-labeled pep1 (20 nM) with TNKS2 ARC4 (3 uM); PBS, 0.05% Tween 20; 30 min, 25 C. To be noted: both partners purified. (In general: In fluorescence polarisation assays a small probe gives low polarisation when free and higher when bound to something large.)
In general, Kd refers to the free concentration of one partner at which half of the binding sites on the other are occupied at equilibrium, for simple one-to-one binding. On to Ac-RE[Lys(N3)]GDG[Lys(N3)]E-NH2 (bridge 3-7; not fully specified (bridges)) [cp4n4m5], for which the Kd turned out to be 2.8 ± 0.1 µM.
Ac-R[Lys(N3)]AGDGE[Lys(N3)] (bridge 2-8; not fully specified (bridges)) [cp3n4m7N] yielded a Kd of 35.5 ± 2.5 µM.
Ac-RE[Lys(N3)]GDG[Lys(N3)]E (bridge 3-7; not fully specified (bridges)) [cp4n4m7N] came in with a dissociation constant (Kd) of 6.5 ± 0.2 µM.
Turning to Ac-R[Lys(N3)]AGDG[Lys(N3)]E (bridge 2-7; not fully specified (bridges)) [cp2n4m5], the Kd worked out at 14.1 ± 4 µM.
In turn, Ac-RE[Lys(N3)]GDGE[Lys(N3)] (bridge 3-8; not fully specified (bridges)) [cp5n4m5] gave a Kd of 7.9 ± 1.2 µM.
Molecule Ac-R[Lys(N3)]AGDG[Lys(N3)]E (bridge 2-7; not fully specified (bridges)) [cp2n4m7N] returned a Kd of 32.4 ± 1.7 µM.
Molecule Ac-R[n3]AGDG[n3]E (bridge 2-7; not fully specified (bridges)) [cp2n3m7N] had a Kd of 14.7 ± 0.8 µM.
On the same count and under the same terms, the value for Ac-RE[Lys(N3)]GDGE[Lys(N3)] (bridge 3-8; not fully specified (bridges)) [cp5n4m5c] was 13.9 ± 2.1 µM; that for Ac-R[Aha]AGDG[Aha]E (bridge 2-7; not fully specified (bridges)) [cp2n2m7N] was 53.3 ± 8.3 µM; that for Ac-R[Lys(N3)]AGDGE[Lys(N3)] (bridge 2-8; not fully specified (bridges)) [cp3n4m5] was 23.4 ± 4.2 µM.
On the same count and under the same terms, the value for Ac-RE[Lys(N3)]GDG[Lys(N3)]E (bridge 3-7; not fully specified (bridges)) [cp4n4m5c] was 16.7 ± 2 µM.

For another assay the target is unchanged. Description: fluorescence polarisation; direct: TNKS2 ARC4 or TNKS1 ARC2-3 diluted 2-fold serially (40-0 uM, 50 uL) and mixed with TAMRA-labeled peptide (20 nM, 50 uL); 50 mM HEPES pH 7.5, 300 mM NaCl, 2 mM DTT, 0.05% Tween 20; 30 min, 25 C. To be noted: both partners purified.
Take {5‑TAMRA-Ahx}-RE[n3]GDG[Aha]E (triazole 3-7 via m3; reading uncertain) [T-cp4n32m3]: the affinity, expressed as Kd, was 6.1 ± 0.2 µM.
In the case of {5‑TAMRA-Ahx}-RE[Aha]GDG[Dap(N3)]E (triazole 3-7 via m4; reading uncertain) [T-cp4n21m4], the Kd amounted to 5.8 ± 0.2 µM.
Same read-out and setting: the same measure for {5‑TAMRA-Ahx}-RE[Aha]GDG[n3]E (triazole 3-7 via m3c; reading uncertain) [T-cp4n23m3c]: 15.5 ± 0.6 µM.
The same measure, in the same setting: the same measure for {5‑TAMRA-Ahx}-RE[Dap(N3)]GDG[Aha]E (triazole 3-7 via m5; reading uncertain) [T-cp4n12m5]: 7.7 ± 0.3 µM; for {5‑TAMRA-Ahx}-RE[Aha]GDG[Dap(N3)]E (triazole 3-7 via m3; reading uncertain) [T-cp4n21m3]: 22.8 ± 1.3 µM; for {5‑TAMRA-Ahx}-RE[Dap(N3)]GDG[Dap(N3)]E (triazole 3-7 via m4; reading uncertain) [T-cp4n1m4]: 61.8 ± 33.9 µM.
The molecule {5‑TAMRA-Ahx}-RE[Dap(N3)]GDG[Aha]E (triazole 3-7 via m3; reading uncertain) [T-cp4n12m3] gave a Kd of 12.5 ± 0.5 µM.
For {5‑TAMRA-Ahx}-RE[n3]GDG[n3]E (bridge 3-7; not fully specified (bridges)) [T-cp4n3m3c], binding was put at a Kd of 15.4 ± 0.6 µM.
The molecule {5‑TAMRA-Ahx}-RE[n3]GDG[Aha]E (triazole 3-7 via m4; reading uncertain) [T-cp4n32m4] returned a Kd of 11.1 ± 0.9 µM.
As to {5‑TAMRA-Ahx}-RE[Aha]GDG[n3]E (triazole 3-7 via m5; reading uncertain) [T-cp4n23m5], the Kd worked out at 4.3 ± 0.2 µM.
On the same count and under the same terms, the value for {5‑TAMRA-Ahx}-RE[Aha]GDG[Dap(N3)]E (triazole 3-7 via m5; reading uncertain) [T-cp4n21m5] was 13.6 ± 1.1 µM; that for {5‑TAMRA-Ahx}-RE[n3]GDG[Aha]E (triazole 3-7 via m5; reading uncertain) [T-cp4n32m5] was 4.2 ± 0.12 µM.
In turn, {5‑TAMRA-Ahx}-RE[Dap(N3)]GDG[Aha]E (triazole 3-7 via m4; reading uncertain) [T-cp4n12m4] showed a Kd of 8.9 ± 0.3 µM.
Take {5‑TAMRA-Ahx}-RE[Aha]GDG[n3]E (triazole 3-7 via m4; reading uncertain) [T-cp4n23m4]: the affinity, expressed as Kd, was 1.7 ± 0.05 µM.
{5‑TAMRA-Ahx}-RE[n3]GDG[Aha]E (triazole 3-7 via m3c; reading uncertain) [T-cp4n32m3c] showed a Kd of 15.3 ± 0.6 µM.

The target of another assay is T2, human tankyrase 1 ankyrin repeat …. The assay can be described thus: ITC; TNKS2 ARC4 (160-280 uM) or TNKS1 ARC2-3 (60-150 uM) titrated into the cell with unlabeled peptide (5-15 uM) or Axin1 fragment (8-12 uM); PBS, 0.5 mM TCEP; 25 C; one-site model; stoichiometry = TNKS per peptide or Axin1. To be noted: both partners purified. A general note: ITC needs no label: the signal is the heat of the interaction.
One may read the stoichiometry N as the number of molecules, sites or subunits per partner or assembly. Regarding Ac-RE[Aha]GDG[Aha]E-NH2 (triazole 3-7 via m3; reading uncertain) [cp4n2m3 (unlabeled)], the Kd turned out to be 0.26 ± 0.03 µM and the “stoichiometry N” value worked out at 0.9 ± 0.01.
For Ac-REAGDGEE-NH2 [pep1 (unlabeled linear consensus peptide Ac-REAGDGEE)], the “stoichiometry N” value worked out at 0.9 ± 0.01.
As for Ac-RE[Aha]GDG[Aha]E-NH2 (bridge 3-7; not fully specified (bridges)) [cp4n2m3c (unlabeled)], binding was characterised by a dissociation constant (Kd) of 0.37 ± 0.04 µM and the “stoichiometry N” value worked out at 1.1 ± 0.02.

The target of another assay is T1, human tankyrase 2 ankyrin repeat …. The description is as above. To be noted: both partners purified.
Regarding Ac-RE[Aha]GDG[Aha]E-NH2 (triazole 3-7 via m3; reading uncertain) [cp4n2m3 (unlabeled)], the Kd was determined as 0.89 ± 0.04 µM and the “stoichiometry N” value worked out at 0.9 ± 0.005.
Ac-REAGDGEE-NH2 [pep1 (unlabeled linear consensus peptide Ac-REAGDGEE)]: binding was put at a Kd of 1.18 ± 0.04 µM and the “stoichiometry N” value came out at 1 ± 0.004.
The matching figures for Ac-RE[Aha]GDG[Aha]E-NH2 (bridge 3-7; not fully specified (bridges)) [cp4n2m3c (unlabeled)]: 0.64 ± 0.01 µM and 1.1 ± 0.002.
